Source: the supplement of paper PMC10567573

B1: SLC35F2 (parent)
chain: SFMPLVIKVTSATSVNLGILTADL

Variants of: B1
Assay: protein stability index of a GFP-peptide fusion (GPS, HEK-293T) (PSI 1-6); higher = more stable
Conditions: c terminus: a fixed tail appended
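Further: lentivirally expressed fusions sorted by FACS into six bins by GFP to DsRed ratio, PSI derived from sequencing read proportions per bin multiplied by bin number.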

| Variant | protein stability index |
| --- | --- |
| SFMQLVIKVTSATSVNLGILTADL [P4Q] | 4.03 |
| SFMRLVIKVTSATSVNLGILTADL [P4R] | 5.37 |
| SFMSLVIKVTSATSVNLGILTADL [P4S] | 1.73 |
| SFMLLVIKVTSATSVNLGILTADL [P4L] | 2.34 |
| SFMELVIKVTSATSVNLGILTADL [P4E] | 3.23 |
| SFMMLVIKVTSATSVNLGILTADL [P4M] | 3.13 |
| SFMGLVIKVTSATSVNLGILTADL [P4G] | 2.32 |
| SFMVLVIKVTSATSVNLGILTADL [P4V] | 3.1 |
| SFMTLVIKVTSATSVNLGILTADL [P4T] | 2.71 |
| SFMFLVIKVTSATSVNLGILTADL [P4F] | 1.91 |
| SFMWLVIKVTSATSVNLGILTADL [P4W] | 3.07 |
| SFMHLVIKVTSATSVNLGILTADL [P4H] | 3.09 |
| SFMPQVIKVTSATSVNLGILTADL [L5Q] | 2.19 |
| SFMPHVIKVTSATSVNLGILTADL [L5H] | 2.28 |
| SFMPGVIKVTSATSVNLGILTADL [L5G] | 1.68 |
| SFMPDVIKVTSATSVNLGILTADL [L5D] | 1.88 |
| SFMPPVIKVTSATSVNLGILTADL [L5P] | 2.55 |
| SFMPEVIKVTSATSVNLGILTADL [L5E] | 1.51 |
| SFMPYVIKVTSATSVNLGILTADL [L5Y] | 3.46 |
| SFMPWVIKVTSATSVNLGILTADL [L5W] | 2.75 |
| SFMPKVIKVTSATSVNLGILTADL [L5K] | 1.88 |
| SFMPIVIKVTSATSVNLGILTADL [L5I] | 2.1 |
| SFMPRVIKVTSATSVNLGILTADL [L5R] | 1.65 |
| SFMPAVIKVTSATSVNLGILTADL [L5A] | 3.18 |

| Variant | protein stability index |
| --- | --- |
| SFMPSVIKVTSATSVNLGILTADL [L5S] | 1.47 |
| SFMPVVIKVTSATSVNLGILTADL [L5V] | 2.41 |
| SFMPTVIKVTSATSVNLGILTADL [L5T] | 3.25 |
| SFMPMVIKVTSATSVNLGILTADL [L5M] | 2.94 |
| SFMPCVIKVTSATSVNLGILTADL [L5C] | 3.74 |
| SFMPNVIKVTSATSVNLGILTADL [L5N] | 2.24 |
| SFMPLVIKHTSATSVNLGILTADL [V9H] | 1.52 |
| SFMPLVIKDTSATSVNLGILTADL [V9D] | 1.78 |
| SFMPLVIKITSATSVNLGILTADL [V9I] | 3.17 |
| SFMPLVIKCTSATSVNLGILTADL [V9C] | 3.06 |
| SFMPLVIKATSATSVNLGILTADL [V9A] | 2.07 |
| SFMPLVIKFTSATSVNLGILTADL [V9F] | 3.51 |
| SFMPLVIKGTSATSVNLGILTADL [V9G] | 2.17 |
| SFMPLVIKLTSATSVNLGILTADL [V9L] | 4.15 |
| SFMPLVIKKTSATSVNLGILTADL [V9K] | 1.48 |
| SFMPLVIKETSATSVNLGILTADL [V9E] | 1.58 |
| SFMPLRIKVTSATSVNLGILTADL [V6R] | 2.43 |
| SFMPLGIKVTSATSVNLGILTADL [V6G] | 3.03 |
| SFMPLWIKVTSATSVNLGILTADL [V6W] | 4.41 |
| SFMPLPIKVTSATSVNLGILTADL [V6P] | 2.06 |
| SFMPLEIKVTSATSVNLGILTADL [V6E] | 1.24 |
| SFMPLQIKVTSATSVNLGILTADL [V6Q] | 1.86 |
| SFMPLCIKVTSATSVNLGILTADL [V6C] | 3.92 |
| SFMPLYIKVTSATSVNLGILTADL [V6Y] | 3.21 |

| Variant | protein stability index |
| --- | --- |
| SFMPLKIKVTSATSVNLGILTADL [V6K] | 2.88 |
| SFMPLMIKVTSATSVNLGILTADL [V6M] | 1.36 |
| SFMPLHIKVTSATSVNLGILTADL [V6H] | 2.74 |
| SFMPLLIKVTSATSVNLGILTADL [V6L] | 2.32 |
| SFMPLSIKVTSATSVNLGILTADL [V6S] | 2 |
| SFMPLAIKVTSATSVNLGILTADL [V6A] | 2.02 |
| SFMPLFIKVTSATSVNLGILTADL [V6F] | 2.02 |
| SFMPLTIKVTSATSVNLGILTADL [V6T] | 2.76 |
| SFMPLIIKVTSATSVNLGILTADL [V6I] | 2.65 |
| SFMPLNIKVTSATSVNLGILTADL [V6N] | 2.29 |
| SFMPLDIKVTSATSVNLGILTADL [V6D] | 2.09 |
| SFMPLVKKVTSATSVNLGILTADL [I7K] | 1.76 |
| SFMPLVAKVTSATSVNLGILTADL [I7A] | 2.13 |
| SFMPLVCKVTSATSVNLGILTADL [I7C] | 2.11 |
| SFMPLVSKVTSATSVNLGILTADL [I7S] | 1.89 |
| SFMPLVMKVTSATSVNLGILTADL [I7M] | 2.87 |
| SFMPLVDKVTSATSVNLGILTADL [I7D] | 1.98 |
| SFMPLVNKVTSATSVNLGILTADL [I7N] | 2.21 |
| SFMPLVTKVTSATSVNLGILTADL [I7T] | 2.19 |
| SFMPLVEKVTSATSVNLGILTADL [I7E] | 1.49 |
| SFMPLVWKVTSATSVNLGILTADL [I7W] | 3.77 |
| SFMPLVPKVTSATSVNLGILTADL [I7P] | 1.88 |
| SFMPLVGKVTSATSVNLGILTADL [I7G] | 2.17 |
| SFMPLVVKVTSATSVNLGILTADL [I7V] | 3.05 |

| Variant | protein stability index |
| --- | --- |
| SFMPLVHKVTSATSVNLGILTADL [I7H] | 1.57 |
| SFMPLVLKVTSATSVNLGILTADL [I7L] | 3.42 |
| SFMPLVRKVTSATSVNLGILTADL [I7R] | 2.16 |
| SFMPLVQKVTSATSVNLGILTADL [I7Q] | 2.26 |
| SFMPLVFKVTSATSVNLGILTADL [I7F] | 3.03 |
| SFMPLVIGVTSATSVNLGILTADL [K8G] | 2.94 |
| SFMPLVIRVTSATSVNLGILTADL [K8R] | 3.26 |
| SFMPLVIQVTSATSVNLGILTADL [K8Q] | 2.87 |
| SFMPLVIAVTSATSVNLGILTADL [K8A] | 2.83 |
| SFMPLVIYVTSATSVNLGILTADL [K8Y] | 3.43 |
| SFMPLVIWVTSATSVNLGILTADL [K8W] | 2.13 |
| SFMPLVITVTSATSVNLGILTADL [K8T] | 3 |
| SFMPLVISVTSATSVNLGILTADL [K8S] | 3.16 |
| SFMPLVINVTSATSVNLGILTADL [K8N] | 3.01 |
| SFMPLVIVVTSATSVNLGILTADL [K8V] | 3.52 |
| SFMPLVICVTSATSVNLGILTADL [K8C] | 3.64 |
| SFMPLVIDVTSATSVNLGILTADL [K8D] | 2.75 |
| SFMPLVIEVTSATSVNLGILTADL [K8E] | 3.06 |
| SFMPLVIIVTSATSVNLGILTADL [K8I] | 3.97 |
| SFMPLVIHVTSATSVNLGILTADL [K8H] | 2.59 |
| SFMPLVIPVTSATSVNLGILTADL [K8P] | 2.19 |
| SFMPLVIMVTSATSVNLGILTADL [K8M] | 2.42 |
